Source: patent publication US20190062420A1 (Janssen / Centocor, published 2019)

T1: FcγRIIA protein (human, UniProt P12318 36-217, biotinylated (SureLINK Biotin Kit) in the ELISA of Example 1)
T1 construct: Soluble/recombinant antigen used in ELISA; also called bt-FcγRIIA; recombinant FcγRIIA protein
T1 sequence: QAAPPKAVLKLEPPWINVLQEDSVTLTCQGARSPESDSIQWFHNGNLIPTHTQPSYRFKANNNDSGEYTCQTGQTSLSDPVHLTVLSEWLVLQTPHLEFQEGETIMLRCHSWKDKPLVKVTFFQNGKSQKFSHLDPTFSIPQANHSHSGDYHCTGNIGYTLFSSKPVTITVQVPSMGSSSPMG

T2: FcγRIIB protein (human, UniProt P31994 43-217, biotinylated (SureLINK Biotin Kit) in the ELISA of Example 1)
T2 construct: Soluble/recombinant antigen used in ELISA; also called bt-FcγRIIB; recombinant FcγRIIB protein
T2 sequence: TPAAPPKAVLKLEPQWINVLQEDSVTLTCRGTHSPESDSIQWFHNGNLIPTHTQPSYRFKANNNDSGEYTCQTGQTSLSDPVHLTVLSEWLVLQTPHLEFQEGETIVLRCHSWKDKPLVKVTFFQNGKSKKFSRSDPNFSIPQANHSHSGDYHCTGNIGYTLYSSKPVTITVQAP

T3: human FcγRIIB (NM_004001) expressed on cells (human, UniProt P31994 43-310)
T3 sequence: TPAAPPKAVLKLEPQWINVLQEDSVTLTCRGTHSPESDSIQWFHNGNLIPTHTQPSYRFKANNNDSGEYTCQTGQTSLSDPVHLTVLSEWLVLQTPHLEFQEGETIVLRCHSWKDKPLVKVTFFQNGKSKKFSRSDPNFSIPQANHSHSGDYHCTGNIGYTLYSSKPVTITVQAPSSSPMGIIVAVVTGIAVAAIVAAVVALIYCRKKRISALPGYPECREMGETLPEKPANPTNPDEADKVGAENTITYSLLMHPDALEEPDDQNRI

T4: human FcγRIIA (NM_021642) expressed on cells (human, UniProt P12318 36-317)
T4 sequence: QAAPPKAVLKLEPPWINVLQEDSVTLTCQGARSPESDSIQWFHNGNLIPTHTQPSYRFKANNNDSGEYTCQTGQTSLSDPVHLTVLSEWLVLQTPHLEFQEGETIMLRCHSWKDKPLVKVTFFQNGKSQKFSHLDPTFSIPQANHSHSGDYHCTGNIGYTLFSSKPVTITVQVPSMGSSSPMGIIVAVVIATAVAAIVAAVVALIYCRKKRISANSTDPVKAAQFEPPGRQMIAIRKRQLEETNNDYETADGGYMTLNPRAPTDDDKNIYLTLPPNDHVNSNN

T5: human OX40 expressed on HEK-Blue: OX40 cells (human, UniProt P43489 29-277)
T5 construct: also called CD134
T5 sequence: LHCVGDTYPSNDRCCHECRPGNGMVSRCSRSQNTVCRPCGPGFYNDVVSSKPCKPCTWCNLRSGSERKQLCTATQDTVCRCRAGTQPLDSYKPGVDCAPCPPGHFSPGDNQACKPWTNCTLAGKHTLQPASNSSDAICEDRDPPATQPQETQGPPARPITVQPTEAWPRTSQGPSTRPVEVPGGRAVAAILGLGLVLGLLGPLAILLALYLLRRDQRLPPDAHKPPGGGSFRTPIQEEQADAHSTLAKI


Legend:
FcγRIIA protein = molecular target: T1, FcγRIIA protein; test: ELISA; bt-FcγRIIA on streptavidin plate, purified FN3 domain titrated
Method: (§1) For primary ELISA, Maxisorp 96-well plates were loaded with 100 μL per well of streptavidin (Promega; 5 μg/mL in PBS) and then held at 4° C. overnight. The next day, the streptavidin-coated plates were washed 3×TBST and then blocked with 250 μL Starting Block T20 (Pierce-cat#37543). After a 1 h incubation, all plates were washed 3 times with 1×TBST, loaded with 100 μL per well of either bt-FcγRIIA, bt-FcγRIIB, or bt-HSA (negative screen) all at 1 μg/mL, and held at room temperature for 1 h. The previously lysed FN3 domains were centrifuged at 3500 rpm for 10 minutes, diluted 1:10 in Starting Block T20 and added 100 μL each to the plates. After a 1 h incubation at room temperature, the plates were washed 3× with 1×TBST and the wells were loaded with 100 μL of a HRP conjugated rabbit polyclonal antibody against tencon 27. After a final 1 h incubation at room temperature, the plates were washed 3× with 1×TBST, loaded with 100 μL per well of the chemiluminescence substrate POD (Roche), and read in a Perkin Elmer Envision plate reader. Positive binding colonies (those clones showing 5-fold higher binding to FcγRIIA or FcγRIIB when compared to HSA) were subjected to Sanger sequencing and identified coding sequences were in silico translated to amino acid sequences. Sequence unique FN3 domains were expressed in BL21 cells and purified using nickel sepharose plates. Antigen binding of purified FN3 domains in a dilution series was performed. Specifically, in an ELISA format, Streptavidin coated plates (Promega #Z7041) were used to capture 50 μL of 1 μg/mL of either bt-FcγRIIB, bt-FcγRIIA, or as a negative control against sticky FN3 domains bt-HSA. To this FN3 domains were added at 10 μM then diluted 1:5 down to 128 pM, and detected for binding using a HRP conjugated rabbit polyclonal against tencon 27 and POD substrate (Roche #11582950001). Binding curves and EC50 values were calculated using X=log(x) transformation and non-linear regression (curved slope) calculations of Prism GraphPad.

FcγRIIB protein = molecular target: T2, FcγRIIB protein; test: ELISA; bt-FcγRIIB on streptavidin plate, purified FN3 domain titrated
Method: as §1

[1] = molecular target: T3, human FcγRIIB (NM_004001) expressed on …; test: cell-based or functional assay
[2] = molecular target: T4, human FcγRIIA (NM_021642) expressed on …; test: cell-based or functional assay
[3] = molecular target: T5, human OX40 expressed on HEK-Blue: OX40 …; test: flow cytometry; HEK-Blue: OX40 cells
Method: (§2) 2×10⁵ cells per well were seeded in 96-well plate and blocked in BSA Stain Buffer (BD Biosciences, San Jose, USA) for 30 min at 4° C. Cells were incubated with test mAbtyrin on ice for 1.5 h at 4° C. After being washed twice with BSA stain buffer, the cells were incubated with R-PE labeled anti-human or anti-mouse IgG secondary antibody (Jackson Immunoresearch Laboratories) for 45 min at 4° C. The cells were washed twice in stain buffer and then resuspended in 150 μL of Stain Buffer containing 1:200 diluted DRAQ7 live/dead stain (Cell Signaling Technology, Danvers, USA). PE and DRAQ7 signals of the stained cells were detected by Miltenyi MACSQuant flow cytometer (Miltenyi Biotec, Auburn, USA) using B2 and B4 channel respectively. Live cells were gated on DRAQ7 exclusion and the geometric mean fluorescence signals were determined for at least 10,000 live events collected. FlowJo software (Tree Star) was used for analysis. Data was plotted as the logarithm of antibody concentration versus mean fluorescence signals. Nonlinear regression analysis was performed by GraphPad Prism 6 (GraphPad Software, Inc.) and EC₅₀ values were calculated.
The binding of mAbtyrins on OX40 expressed on cell surface were investigated by flow cytometry assay described for testing mAbtyrin binding to FcγR. A stable HEK-Blue reporter cell line expressing human OX40 (HEK-Blue: OX40) was established by transfection OX40 expression plasmid (pUNO1-hOX40) into HEK-Blue™ Null 1 cells engineered to express a secreted embryonic alkaline phosphatase (SEAP) reporter gene under the control of NF-κB-inducible promoter (IFN-β minimal promoter). mAbtyrins were incubated with HEK-Blue: OX40 cells and the binding was detected by flow cytometry using a PE-labeled Goat F(ab′)₂ against Human IgG(γ).

[4] = molecular target: T3, human FcγRIIB (NM_004001) expressed on …; test: flow cytometry; Raji cells (express predominantly FcγRIIB)
[5] = molecular target: T4, human FcγRIIA (NM_021642) expressed on …; test: flow cytometry; Expi293F cells transfected with FcγRIIA
Method: (§3) Plasmids expressing cDNAs encoding human FcγRI (NM_000566) (SEQ ID NO: 44), FcγRIIA (NM_021642) (SEQ ID NO: 2), FcγRIIB (NM_004001) (SEQ ID NO: 3), and FcγRIIIA (NM_000569) (SEQ ID NO: 45) (Origene) were transiently transfected into Expi293F cells by ExpiFectamine293 transfection kit (Life Technologies). Flow cytometry assays were performed 48 h after transfection.
as §2

[6] = molecular target: T3, human FcγRIIB (NM_004001) expressed on …; test: flow cytometry; Expi293F cells transfected with FcγRIIB
Method: as §3, §2

[7] = molecular target: T3, human FcγRIIB (NM_004001) expressed on …; test: flow cytometry; Raji cells (express predominantly FcγRIIB); remark: listed apart in the source
Method: as §2
Raji cell is a cell line derived from B cells that express predominantly FcγRIIB. The binding of mAbtyrins on Raji cells were investigated by flow cytometry assay described for testing mAbtyrin binding to FcγR. Binding of the mAbtyrins were detected by flow cytometry using a PE-labeled Goat F(ab′) against Human IgG(γ).

| Binder | EC50 (FcγRIIA protein) [nM] | EC50 (FcγRIIB protein) [nM] | other results |
| --- | --- | --- | --- |
| R2BS29 (designed binder, expressed in E. coli BL21 and purified on nickel sepharose; also called R2BS29 FN3 domain; R2B29) LPAPKNLVVSRVTEDSARLSWTAPDAAFDSFPIYYWEYRVGGEAIVLTVPGSERSYDLTGLKPGTEYFVYINGVKGGEESRPLSAIFTT | 3.22 | 3.57 |  |
| R2BS26 (designed binder, expressed in E. coli BL21 and purified on nickel sepharose; also called R2BS26 FN3 domain) LPAPKNLVVSRVTEDSARLSWTAPDAAFDSFPIAYIEYWTGGEAIVLTVPGSERSYDLTGLKPGTEYFVWIHGVKGGAWSSPLSAIFTT | 6.51 | 5.3 |  |
| R2BS9 (designed binder, expressed in E. coli BL21 and purified on nickel sepharose; also called R2BS9 FN3 domain) LPAPKNLVVSRVTEDSARLSWTAPDAAFDSFWIYYLEYWRGGEAIVLTVPGSERSYDLTGLKPGTEYFVQIHGVKGGQYSYPLSAIFTT | 5.49 | 4.51 |  |
| R2BS6 (designed binder, expressed in E. coli BL21 and purified on nickel sepharose; also called R2BS6 FN3 domain) LPAPKNLVVSRVTEDSARLSWTAPDAAFDSFLIQYQESEKVGEAIVLTVPGSERSYDLTGLKPGTEYTVSIYGVQYAAWYLPRHHEASNPLSAIFTT | 27.3 | 7.59 |  |
| R2BS39 (designed binder, expressed in E. coli BL21 and purified on nickel sepharose; also called R2BS39 FN3 domain) LPAPKNLVVSRVTEDSARLSWTAPDAAFDSFLIQYQESEKVGEAIVLTVPGSERSYDLTGLKPGTEYTVSIYGVSHGPWYNYGEWRSNPLSAIFTT | 15.5 | 419 |  |
| OX40SF2IgG2sigma_R2BS26_HC-C (bispecific antibody, mAbtyrin: anti-OX40 antibody OX40SF2, effector silent IgG2sigma, with linker and R2BS26 FN3 domain at the C-terminus of the heavy chain; also called mAbtyrin) heavy: QVQLVQSGAEVKKPGSSVKVSCKASGYTFKDYTMHWVRQAPGQGLEWIGGIYPNNGGSTYNQNFKDRVTLTADKSTSTAYMELSSLRSEDTAVYYCARMGYHGPHLDFDVWGQGTTVTVSSASTKGPSVFPLAPCSRSTSESTAALGCLVKDYFPEPVTVSWNSGALTSGVHTFPAVLQSSGLYSLSSVVTVPSSNFGTQTYTCNVDHKPSNTKVDKTVERKCCVECPPCPAPPAAASSVFLFPPKPKDTLMISRTPEVTCVVVDVSAEDPEVQFNWYVDGVEVHNAKTKPREEQFNSTFRVVSVLTVLHQDWLNGKEYKCKVSNKGLPSSIEKTISKTKGQPREPQVYTLPPSREEMTKNQVSLTCLVKGFYPSDIAVEWESNGQPENNYKTTPPMLDSDGSFFLYSKLTVDKSRWQQGNVFSCSVMHEALHNHYTQKSLSLSPGKGGGGGSGGGGSGGGGSGGGGSLPAPKNLVVSRVTEDSARLSWTAPDAAFDSFPIAYIEYWTGGEAIVLTVPGSERSYDLTGLKPGTEYFVWIHGVKGGAWSSPLSAIFTT light: DIQMTQSPSSLSASVGDRVTITCKASQDVGAAVAWYQQKPGKAPKLLIYWASTRHTGVPSRFSGSGSGTDFTLTISSLQPEDFATYYCQQYINYPLTFGGGTKVEIKRTVAAPSVFIFPPSDEQLKSGTASVVCLLNNFYPREAKVQWKVDNALQSGNSQESVTEQDSKDSTYSLSSTLTLSKADYEKHKVYACEVTHQGLSSPVTKSFNRGEC |  |  | % activity at 1 µg/ml with Raji cells (HEK-Blue: OX40 NF-κB reporter, relative to 1 µg/ml OX40 ligand) [1]: 103%; fold of agonism enhancement upon crosslinking (Raji cells) [1]: 25 fold; % OX40 cell killed by macrophages (ADCP, 1 µg/ml) [2]: 92%; Binding to HEK-Blue: OX40 cells (mean signal at 1 µg/ml) [3]: 10200 mean fluorescence signal; fold binding signal over OX40SF2IgG2sigma at 10 µg/mL [4]: ≥ 6 fold; EC50 [5]: 0.323 µg/mL; EC50 [6]: 1.38 µg/mL; Binding to Raji cells mean signals at 10 µg/ml [7]: 2290 mean fluorescence signal; EC50 [7]: > 10 µg/mL |

The remaining binders from weak to strong by EC50 (FcγRIIA protein), led by results:

| EC50 (FcγRIIA protein) [nM] | EC50 (FcγRIIB protein) [nM] | Binder | other results |
| --- | --- | --- | --- |
| 9.6 | 43 | R2BS12 (designed binder, expressed in E. coli BL21 and purified on nickel sepharose; also called R2BS12 FN3 domain; R2B12) LPAPKNLVVSRVTEDSARLSWTAPDAAFDSFLIAYAEYWEGGEAVVLTVPGSERSYDLTGLKPGTEYFVQINGVKGGFWSIPLSAIFTT |  |
| 5.5 | 7.32 | R2BS56 (designed binder, expressed in E. coli BL21 and purified on nickel sepharose; also called R2BS56 FN3 domain; R2B56) LPAPKNLVVSRVTEDSARLSWTAPDAAFDSFSIAYWEYRKGGEAIVLTVPGSERSYDLTGLKPGTEYFVLIYGVKGGWQSKPLSAIFTT |  |
